Assays:
mucin subtype 5AC [1] = target: T1, mucin subtype 5AC (human, UniProt P98088 28-5654, limits assumed); assay: ELISA, plate coated with crude extract antigen solution of SW1990 xenograft tumor, HRP anti-human IgG; reference antibody
T1 construct: Not a purified recombinant protein; also called MUC5AC; crude extract antigen solution
Procedure: (§1) Various antibodies were added to a 96 well plate coated with various antigens, and the plate was left standing for 1 hr at room temperature. The plate was washed, a blocking solution was added, and the mixture was left standing for 30 min at room temperature. The plate was washed, HRP-conjugated anti-human IgG was added, and the mixture was left standing for 1 hr or longer at room temperature. The plate was washed, a color development reagent (Bethyl Laboratories, Inc.) was added, and the degree of color development was measured by a microplate reader (VersaMax, Molecular Devices, LLC.).
(§2) In Table 2 and Table 3, a tumor mass collected from a cancer-bearing model mouse transplanted with human pancreatic cancer cell line SW1990 was homogenized, and the supernatant (crude extract antigen solution) after centrifugation was used as an antigen. In Table 4, a mucin fraction obtained by isopycnic centrifugation using cesium chloride from the crude extract antigen solution was used as the antigen.

mucin subtype 5AC [2] = target: T1, mucin subtype 5AC; assay: ELISA, plate coated with mucin fraction (CsCl isopycnic centrifugation of SW1990 tumor crude extract), HRP anti-human IgG
Procedure: as §1, §2

mucin subtype 5AC [3] = target: T1, mucin subtype 5AC; assay: ELISA, plate coated with crude extract antigen solution of SW1990 xenograft tumor, HRP anti-human IgG
Procedure: as §1, §2

in vitro binding activity ratio to antibody 20 (mucin subtype 5AC [2]) [fold vs antibody 20]	in vitro binding activity ratio to antibody 1 (mucin subtype 5AC [3]) [fold vs antibody 1]	in vitro binding activity ratio to antibody 9 (mucin subtype 5AC [3]) [fold vs antibody 9]	Binder	further results
0.13	–	–	antibody 18 (antibody, V domains shown, also called H06L06) VH: EVQLVESGGGLVKPGGSLRLSCAASGFTFSNYGMSWVRQAPGKGLEWVSTISNSGRYTYFPDSVKGRFTISRDNAKNSLYLQMNSLRAEDTAVYYCARHLDYANYDAMDYWGQGTLVTVSS VL: DIVMTQTPLSSPVTLGQPASISCRASKSVTTSDFSYMHWLQQRPGQPPRLLIYLASNLESGVPDRFSGSGAGTDFTLKISRVEAEDVGVYYCQHSREFPWTFGQGTKVEIK	–
–	0.65	–	antibody 7 (antibody, V domains shown, Humanized antibody of the invention; also called H02L03) VH: LVQLVESGGGVVRPGGSLRLSCAASGFTFSNYGMSWIRQAPGKGLEWVSTISNSGRYTYFPDSVKGRFTISRDNAKNSLYLQMNSLRAEDTALYYCTRHLDYANYDAMDYWGQGTLVTVSS VL: DIQMTQSPSSLSASVGDRVTITCRASKSVTTSDFSYMHWYQQKPGKSPKLLIYLASNLESGVPSRFSGSGSGTDFSLTISSLQPEDFATYYCQHSREFPWTFGGGTKVEIK	–
–	–	1.25	antibody 11 (antibody, V domains shown, Humanized antibody of the invention; also called H03L03) VH: LVQLVESGGGVVQPGRSLRLSCAASGFTFSNYGMSWVRQAPGKGLEWVATISNSGRYTYFPDSVKGRFTISRDNSKNTLYLQMNSLRAEDTAVYYCTRHLDYANYDAMDYWGQGTLVTVSS VL: DIQMTQSPSSLSASVGDRVTITCRASKSVTTSDFSYMHWYQQKPGKSPKLLIYLASNLESGVPSRFSGSGSGTDFSLTISSLQPEDFATYYCQHSREFPWTFGGGTKVEIK	–
–	–	0.9	antibody 13 (antibody, V domains shown, Humanized antibody of the invention; also called H04L01) VH: EVQLLESGGGLVQPGGSLRLSCAVSGFTFSNYGMSWVRQAPGKGLEWVSTISNSGRYTYFPDSVKGRFTISRDNSRNTLYLQMNTLRAEDTAVYYCTRHLDYANYDAMDYWGQGTPVTVSS VL: DIVMTQSPSSLSASVGDRVTITCRASKSVTTSDFSYMHWYQQKPGKAPKLLIYLASNLESGVPSRFSGSGSGTDFTLTISSLQPEDFATYYCQHSREFPWTFGGGTKVEIK	–
–	–	1.04	antibody 14 (antibody, V domains shown, Humanized antibody of the invention; also called H04L02) VH: EVQLLESGGGLVQPGGSLRLSCAVSGFTFSNYGMSWVRQAPGKGLEWVSTISNSGRYTYFPDSVKGRFTISRDNSRNTLYLQMNTLRAEDTAVYYCTRHLDYANYDAMDYWGQGTPVTVSS VL: DVVMTQSPSTLSASVGDRVTITCRASKSVTTSDFSYMHWYQQKPGQAPKLLIYLASNLESGVPSRFSGSGSGTDFTLTISSLQPEDFATYYCQHSREFPWTFGQGTKLEIK	–
–	–	1.36	antibody 15 (antibody, V domains shown, Humanized antibody of the invention; also called H04L03) VH: EVQLLESGGGLVQPGGSLRLSCAVSGFTFSNYGMSWVRQAPGKGLEWVSTISNSGRYTYFPDSVKGRFTISRDNSRNTLYLQMNTLRAEDTAVYYCTRHLDYANYDAMDYWGQGTPVTVSS VL: DIQMTQSPSSLSASVGDRVTITCRASKSVTTSDFSYMHWYQQKPGKSPKLLIYLASNLESGVPSRFSGSGSGTDFSLTISSLQPEDFATYYCQHSREFPWTFGGGTKVEIK	–
1.09	–	0.88	antibody 16 (antibody, V domains shown, Humanized antibody of the invention; also called H04L04) VH: EVQLLESGGGLVQPGGSLRLSCAVSGFTFSNYGMSWVRQAPGKGLEWVSTISNSGRYTYFPDSVKGRFTISRDNSRNTLYLQMNTLRAEDTAVYYCTRHLDYANYDAMDYWGQGTPVTVSS VL: DIVMTQSPDSLAVSLGERATINCKASKSVTTSDFSYLHWYQQKPGQPPKLLIYLASNLESGVPDRFSGSGSGTDFTLTISSLQAEDVAVYYCQHSREFPWTFGGGTKLEIK	–
1.56	0.99	–	antibody 3 (antibody, V domains shown, Humanized antibody of the invention; also called H01L03) VH: EVQLLESGGGLVQPGGSLRLSCAASGFTFSNYGMSWVRQAPGKGLEWVSTISNSGRYTYFPDSVKGRFTISRDNSKNTLYLQMNSLRAEDTALYYCTRHLDYANYDAMDYWGQGTLVTVSS VL: DIQMTQSPSSLSASVGDRVTITCRASKSVTTSDFSYMHWYQQKPGKSPKLLIYLASNLESGVPSRFSGSGSGTDFSLTISSLQPEDFATYYCQHSREFPWTFGGGTKVEIK	–
–	–	0.96	antibody 10 (antibody, V domains shown, Humanized antibody of the invention; also called H03L02) VH: LVQLVESGGGVVQPGRSLRLSCAASGFTFSNYGMSWVRQAPGKGLEWVATISNSGRYTYFPDSVKGRFTISRDNSKNTLYLQMNSLRAEDTAVYYCTRHLDYANYDAMDYWGQGTLVTVSS VL: DVVMTQSPSTLSASVGDRVTITCRASKSVTTSDFSYMHWYQQKPGQAPKLLIYLASNLESGVPSRFSGSGSGTDFTLTISSLQPEDFATYYCQHSREFPWTFGQGTKLEIK	–
–	0.71	–	antibody 6 (antibody, V domains shown, Humanized antibody of the invention; also called H02L02) VH: LVQLVESGGGVVRPGGSLRLSCAASGFTFSNYGMSWIRQAPGKGLEWVSTISNSGRYTYFPDSVKGRFTISRDNAKNSLYLQMNSLRAEDTALYYCTRHLDYANYDAMDYWGQGTLVTVSS VL: DVVMTQSPSTLSASVGDRVTITCRASKSVTTSDFSYMHWYQQKPGQAPKLLIYLASNLESGVPSRFSGSGSGTDFTLTISSLQPEDFATYYCQHSREFPWTFGQGTKLEIK	–

Further lines, the binder ahead of its results:

Binder	in vitro binding activity ratio to antibody 20 (mucin subtype 5AC [2]) [fold vs antibody 20]	in vitro binding activity ratio to antibody 1 (mucin subtype 5AC [3]) [fold vs antibody 1]	in vitro binding activity ratio to antibody 9 (mucin subtype 5AC [3]) [fold vs antibody 9]	further results
antibody 1 (antibody, V domains shown, Humanized antibody of the invention; also called H01L01) VH: EVQLLESGGGLVQPGGSLRLSCAASGFTFSNYGMSWVRQAPGKGLEWVSTISNSGRYTYFPDSVKGRFTISRDNSKNTLYLQMNSLRAEDTALYYCTRHLDYANYDAMDYWGQGTLVTVSS VL: DIVMTQSPSSLSASVGDRVTITCRASKSVTTSDFSYMHWYQQKPGKAPKLLIYLASNLESGVPSRFSGSGSGTDFTLTISSLQPEDFATYYCQHSREFPWTFGGGTKVEIK	–	–	–	in vitro binding activity ratio to antibody 1 (mucin subtype 5AC [1]): 1 fold vs antibody 1
antibody 4 (antibody, V domains shown, Humanized antibody of the invention; also called H01L04) VH: EVQLLESGGGLVQPGGSLRLSCAASGFTFSNYGMSWVRQAPGKGLEWVSTISNSGRYTYFPDSVKGRFTISRDNSKNTLYLQMNSLRAEDTALYYCTRHLDYANYDAMDYWGQGTLVTVSS VL: DIVMTQSPDSLAVSLGERATINCKASKSVTTSDFSYLHWYQQKPGQPPKLLIYLASNLESGVPDRFSGSGSGTDFTLTISSLQAEDVAVYYCQHSREFPWTFGGGTKLEIK	0.97	0.99	–	–
antibody 19 (antibody, V domains shown, also called H05L07) VH: EVQLLESGGGLVQPGGSLRLSCAASGFTFSNYGMSWVRQAPGKGLEWVSTISNSGRYTYFPDSVKGRFTISRDNSKNTLYLQMNSLRAEDTAVYYCAKHLDYANYDAMDYWGQGTLVTVSS VL: DIVMTQTPLSLSVTPGQPASISCRASKSVTTSDFSYMHWYLQKPGQPPQLLIYLASNLESGVPDRFSGSGSGTDFTLKISRVEAEDVGVYYCQHSREFPWTFGQGTKVEIK	0.49	–	–	–
antibody 5 (antibody, V domains shown, Humanized antibody of the invention; also called H02L01) VH: LVQLVESGGGVVRPGGSLRLSCAASGFTFSNYGMSWIRQAPGKGLEWVSTISNSGRYTYFPDSVKGRFTISRDNAKNSLYLQMNSLRAEDTALYYCTRHLDYANYDAMDYWGQGTLVTVSS VL: DIVMTQSPSSLSASVGDRVTITCRASKSVTTSDFSYMHWYQQKPGKAPKLLIYLASNLESGVPSRFSGSGSGTDFTLTISSLQPEDFATYYCQHSREFPWTFGGGTKVEIK	–	0.6	–	–
antibody 2 (antibody, V domains shown, Humanized antibody of the invention; also called H01L02) VH: EVQLLESGGGLVQPGGSLRLSCAASGFTFSNYGMSWVRQAPGKGLEWVSTISNSGRYTYFPDSVKGRFTISRDNSKNTLYLQMNSLRAEDTALYYCTRHLDYANYDAMDYWGQGTLVTVSS VL: DVVMTQSPSTLSASVGDRVTITCRASKSVTTSDFSYMHWYQQKPGQAPKLLIYLASNLESGVPSRFSGSGSGTDFTLTISSLQPEDFATYYCQHSREFPWTFGQGTKLEIK	–	1.03	–	–
antibody 8 (antibody, V domains shown, Humanized antibody of the invention; also called H02L04) VH: LVQLVESGGGVVRPGGSLRLSCAASGFTFSNYGMSWIRQAPGKGLEWVSTISNSGRYTYFPDSVKGRFTISRDNAKNSLYLQMNSLRAEDTALYYCTRHLDYANYDAMDYWGQGTLVTVSS VL: DIVMTQSPDSLAVSLGERATINCKASKSVTTSDFSYLHWYQQKPGQPPKLLIYLASNLESGVPDRFSGSGSGTDFTLTISSLQAEDVAVYYCQHSREFPWTFGGGTKLEIK	0.7	0.72	–	–
antibody 12 (antibody, V domains shown, Humanized antibody of the invention; also called H03L04) VH: LVQLVESGGGVVQPGRSLRLSCAASGFTFSNYGMSWVRQAPGKGLEWVATISNSGRYTYFPDSVKGRFTISRDNSKNTLYLQMNSLRAEDTAVYYCTRHLDYANYDAMDYWGQGTLVTVSS VL: DIVMTQSPDSLAVSLGERATINCKASKSVTTSDFSYLHWYQQKPGQPPKLLIYLASNLESGVPDRFSGSGSGTDFTLTISSLQAEDVAVYYCQHSREFPWTFGGGTKLEIK	–	–	0.91	–
antibody 17 (antibody, V domains shown, also called H05L05) VH: EVQLLESGGGLVQPGGSLRLSCAASGFTFSNYGMSWVRQAPGKGLEWVSTISNSGRYTYFPDSVKGRFTISRDNSKNTLYLQMNSLRAEDTAVYYCAKHLDYANYDAMDYWGQGTLVTVSS VL: DIQMTQSPSSLAVSLGDRVTITCRASKSVTTSDFSYMHWYQQKPGLAPKLLIYLASNLESGVPSRFSGSGSGTDFTFTISSLQPEDIATYYCQHSREFPWTFGQGTKVEVK	0.75	–	–	–
antibody 9 (antibody, V domains shown, Humanized antibody of the invention; also called H03L01) VH: LVQLVESGGGVVQPGRSLRLSCAASGFTFSNYGMSWVRQAPGKGLEWVATISNSGRYTYFPDSVKGRFTISRDNSKNTLYLQMNSLRAEDTAVYYCTRHLDYANYDAMDYWGQGTLVTVSS VL: DIVMTQSPSSLSASVGDRVTITCRASKSVTTSDFSYMHWYQQKPGKAPKLLIYLASNLESGVPSRFSGSGSGTDFTLTISSLQPEDFATYYCQHSREFPWTFGGGTKVEIK	–	–	–	in vitro binding activity ratio to antibody 9 (mucin subtype 5AC [1]): 1 fold vs antibody 9

— US20220144927A1 (SUMITOMO DAINIPPON PHARMA, published 2022)
